The values below come from patent CN113388035A (MABWELL SHANGHAI BIOTECHNOLOGY CO LTD; SHANGHAI PUMING …, dated 2021).

Changes are numbered by the printed parent chain.

The target of assay [1] is T1, 人TSLP (human thymic stromal lymphopoietin) protein (human, UniProt Q969D9 29-159).
T1 construct: also called hTSLP; 人TSLP蛋白
In words: BLI (Fortebio), antibody captured on AMC probe, 100nM TSLP, 1:1 fit. (In BLI a coated tip is dipped into the sample, and binding shifts an interference pattern.)

The target in assay [2] is T1, 人TSLP (human thymic stromal …). In words: BLI (Fortebio), method of Example 2, antibody on probe, TSLP in solution.
A further assay concerns the target T2, 人IL7 protein (human, UniProt P13232 26-177).
T2 construct: also called 人IL7蛋白
T2 sequence (looked up): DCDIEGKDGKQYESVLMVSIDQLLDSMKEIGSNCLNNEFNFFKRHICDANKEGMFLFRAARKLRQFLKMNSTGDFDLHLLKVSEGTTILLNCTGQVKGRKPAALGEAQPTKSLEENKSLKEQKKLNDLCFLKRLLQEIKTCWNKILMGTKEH
In words: ELISA, IL7 coated at 1ug/ml, HRP-goat anti-human IgG. For orientation: An ELISA detects its analyte on a solid surface through an enzyme-linked reagent.

Assay [3] addresses T1, 人TSLP (human thymic stromal …). In words: BLI (Fortebio), method of Example 2, antibody on probe, TSLP in solution. This is another data set of the same source.

B1: IgG D01 (murine anti-human TSLP monoclonal antibody, clone D01) (antibody, V domains shown)
VH: QVQLQQSGAELVRPGTSVKVSCKASGYAFTNYFIDWVKQRPGQGLEWIGVINPGSGGTNFNEKFKGKATLTADKSSSTAYMQLSSLTSEDSAVYFCARESEVGEGFAYWGQGTLVTVSA
VL: DIQMTQTSSSLSASLGDRVTISCRASQDISNYLNWYQQKPDGTVKLLIYYTSTLHSGVPSRFSGSGSGTDYSLTISNLEQEDIATYFCQQGNTLPYTFGGGTKLEIK
notes: Murine hybridoma IgG, kappa light chain amplified; also called 克隆D01
By Kd is commonly meant the equilibrium constant for the complex coming apart. A high value points to lower affinity. A word on the koff: it is the first-order rate constant of dissociation. Higher therefore signals a short-lived complex. A word on the kon: it is a measure of how fast the partners come together. Low readings indicate slower complex formation, high ones faster complex formation. Take B1: in assay [1], binding was put at a Kd of 2.83 nM, the koff was 0.000225 s⁻¹ and the on-rate (kon) was determined as 79600 M⁻¹ s⁻¹.

B2: xiD01 (anti-human TSLP chimeric antibody) (antibody, human IgG2, V domains shown)
VH: B1 VH
VL: B1 VL
notes: also called 抗人TSLP嵌合抗体蛋白xiD01; not shown: human kappa light chain constant region
In assay [2], B2 gave a Kd of 0.985 nM, a koff of 0.000356 s⁻¹ and a kon of 361000 M⁻¹ s⁻¹.

B3: hzD01Hm5Lm4 (humanized, affinity-matured anti-human TSLP antibody) (antibody, human IgG2, V domains shown)
VH: EVQLVQSGAEVKKPGASVKVSCKASGYTFTNYFIDWVRQAPGQGLEWIGVIDAFSGGSNFNEKFKGRVTMTRDTSTSTAYMELSSLRSEDTAVYFCARESEVGEGFAYWGQGTLVTVSS
VL: DIQMTQSPSSLSASVGDRVTISCRASQDISNYLNWYQQKPGKAPKLLIYYTSTLHSGVPSRFSGSGSGTDYTLTISSLQPEDIATYFCQQGNTLPYTFGQGTKLEIK
notes: not shown: human kappa light chain constant region
For B3, the binding result with 人IL7 protein is “no binding”. In assay [3], this molecule showed a Kd of 0.0637 nM, a Response of 0.368, a koff of 3.98e-05 s⁻¹ and a kon of 625000 M⁻¹ s⁻¹.

B4: hzD01Lm12 (humanized, affinity-matured anti-human TSLP antibody) (antibody, human IgG2, V domains shown)
VH: B3 VH with D52N, A53P, F54G, S58T
VL: B3 VL with G91F, N92D, T97P
notes: also called hzD01m12; not shown: human kappa light chain constant region
In the case of B4, in the assay with 人IL7 protein, the binding result is reported as “no binding”. In addition, in assay [3], binding was characterised by a dissociation constant (Kd) of 0.0983 nM, the Response was 0.426, the koff is 6.08e-05 s⁻¹ and the kon is 619000 M⁻¹ s⁻¹.
